According to patent publication CN115029318A:

Columns and labels:
[1] = molecular target: EGFR (epidermal growth factor receptor) on human glioma U87 cells (human) (UniProt P00533); assay: cell-based or functional assay
[2] = molecular target: CD3 on T cells of human PBMC (human); assay: cell-based or functional assay

B1: EGFR-CD3-EGFR MsAb (bispecific antibody, part only; not given: linkers and His tag, not shown: small tags and cut ends)
chain, part: ESGGGLTQPGGSLRLSCAASGMSTGMWHRPTPGRERELIALKAPWPGTAPSSWRFTISRDNASNTVYLQMANLNTEDTAVYFCHAGGLLEWELLVVAASWGQGTVSSQVKLEESGSELVQPGGPLRLSCAASANIFSRTEDDWIWYRQAPGKQRAFVAWITGLSTKIGRFTISVDKSKGTIYLQMNALKPEDTAVYYANAAEHASKVVEVSTSWGQGTVVTVSSESGGGLTQPGGSLRLSCAASGMSTGMWHRPTPGRERELIALKAPWPGTAPSSWRFTISRDNASNTVYLQMANLNTEDTAVYFCHAGGLLEWELLVVAASWGQGTVSS
Work on B1 yielded a 细胞杀伤率 (killing of GFP-labelled U87 cells by human PBMC, effector:target 5:1, 50 ng/mL antibody, 24 h, 7-AAD, high-content imaging) [1] greater than 80% and a 细胞杀伤率 (killing of GFP-labelled U87 cells by human PBMC, effector:target 5:1, 50 ng/mL antibody, 24 h, 7-AAD, high-content imaging) [2] greater than 80%.
